Drawing on publication PMC12669584, this text covers stoichiometry N (17b Abs per Env trimer) for 1 substance.

The assay deals with HIV-1 BaL envelope glycoprotein (Env) trimer on AT-2 inactivated virions (HIV-1 (BaL)). Description: cryo-EM structure.

As to “anti-coreceptor binding site (CoRBS) antibody 17b (full IgG)”, the stoichiometry N (17b Abs per Env trimer) stood at 3.
